Measurements as given in US20100221248A1.

Columns and labels:
[1] = target: human FcγRIIIA, 158F 176V allele, soluble (human) (UniProt P08637); assay: SPR (Biacore T100), steady state, MBP-Fn3 immobilized, soluble FcR injected
[2] = target: human FcγRIIIA, 158F 176F allele, soluble (human) (UniProt P08637); assay: as above

B1: MBP-IIIA537 (designed binder, not shown: large carriers)
chain: LGENLYFQSVSDVPRDLEVVVATPTSLLINWDLPFSDSYRITYGETGGNSPVQGFTVPGTESIATISGLKPGVDYTITVYAVASSGSNSYPISINYRTEIDKPSQ
B1 gave a Kd [1] of 3.9 µM and a Kd [2] of 4.9 µM.
